The source of these data is patent publication US10772928B2, “Modulation and detection of a neuronal alternative splicing regulatory network for treatment and diagnosis of neurological disorders” (The Governing Council of the University of Toronto, priority 2014, dated 2020).

The target in the assay is T1, nSR100 (Mus musculus, UniProt Q8BKA3).
T1 construct: host or cells: mouse N2A cells
T1 sequence (Q8BKA3 1-608): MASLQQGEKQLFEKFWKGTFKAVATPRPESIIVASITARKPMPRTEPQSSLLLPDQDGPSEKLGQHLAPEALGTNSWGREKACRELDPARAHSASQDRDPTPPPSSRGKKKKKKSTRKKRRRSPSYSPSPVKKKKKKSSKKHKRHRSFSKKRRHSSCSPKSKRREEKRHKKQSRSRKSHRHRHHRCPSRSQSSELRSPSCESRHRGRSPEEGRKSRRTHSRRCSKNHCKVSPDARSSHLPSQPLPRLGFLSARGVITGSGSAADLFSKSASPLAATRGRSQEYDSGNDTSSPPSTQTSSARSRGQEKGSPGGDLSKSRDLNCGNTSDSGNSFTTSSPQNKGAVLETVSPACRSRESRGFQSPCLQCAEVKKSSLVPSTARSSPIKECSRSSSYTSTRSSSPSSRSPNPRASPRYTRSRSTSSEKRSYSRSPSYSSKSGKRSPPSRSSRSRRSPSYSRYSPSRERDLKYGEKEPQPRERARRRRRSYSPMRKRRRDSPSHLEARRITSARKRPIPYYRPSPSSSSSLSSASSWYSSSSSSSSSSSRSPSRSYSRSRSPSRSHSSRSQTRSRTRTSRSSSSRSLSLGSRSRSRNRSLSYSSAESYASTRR
As to the kind of experiment: AP-MS nSR100 interaction partners from mouse N2A cells (Table 5). The note with it: for AvgP (average of the SAINT scores) / MaxP (maximal SAINT score): bait Srrm4; for FoldChange between the prey Avg spectra of the bait and control purifications: bait Srrm4, 0.1 added to prevent division by 0; for AvgSpec (average number of spectra per replicate): bait Srrm4, 2 replicates; for Spectra (number of spectra for the prey in the purification of the bait): AP-MS; for SpecSum: bait Srrm4, sum of spectra over 2 replicates. The format is binding.

The mark [1] stands for this setting: bait Srrm4, biological replicate 1 (first number of the cell).
Setting [2] is: bait Srrm4, biological replicate 2 (second number of the cell).

Source text: By applying affinity purification coupled to mass-spectrometry (AP-MS), several interaction nSR100 partner proteins were detected that provide insight into mechanisms of post-translational regulation of nSR100 levels.

B1: Rad23b (protein, UniProt P54728 1-416, looked up)
UV excision repair protein …: MQVTLKTLQQQTFKIDIDPEETVKALKEKIESEKGKDAFPVAGQKLIYAGKILSDDTALKEYKIDEKNFVVVMVTKPKAVTTAVPATTQPSSTPSPTAVSSSPAVAAAQAPAPTPALPPTSTPASTAPASTTASSEPAPAGATQPEKPAEKPAQTPVLTSPAPADSTPGDSSRSNLFEDATSALVTGQSYENMVTEIMSMGYEREQVIAALRASFNNPDRAVEYLLMGIPGDRESQAVVDPPPQAVSTGTPQSPAVAAAAATTTATTTTTSGGHPLEFLRNQPQFQQMRQIIQQNPSLLPALLQQIGRENPQLLQQISQHQEHFIQMLNEPVQEAGSQGGGGGGGGGGGGGGGGGIAEAGSGHMNYIQVTPQEKEAIERLKALGFPEGLVIQAYFACEKNENLAANFLLQQNFDED
As to B1, the “AvgP (average of the SAINT scores)” value is recorded as 1; the “MaxP (maximal SAINT score)” value is 1; the “FoldChange between the prey Avg spectra of the bait and control purifications” value (“FoldChange between the prey Avg spectra” below) came out at 35; the “AvgSpec (average number of spectra per replicate)” value came to 3.5. Also, the SpecSum came to 7. Further, under setting [1], the “Spectra (number of spectra for the prey in the purification of the bait)” value came out at 3. In addition, the “Spectra (number of spectra for the prey in the purification of the bait)” value under setting [2] was determined as 4.

B2: Rbm25 (protein, UniProt B2RY56 1-838, looked up)
RNA-binding protein 25: MSFPPHLNRPPMGIPALPPGIPPPQFPGFPPPVPPGTPMIPVPMSIMAPAPTVLVPTVSMVGKHLGARKDHPGLKLKENDENCGPTTTVFVGNISEKASDMLIRQLLAKCGLVLSWKRVQGASGKLQAFGFCEYKEPESTLRALRLLHDLQIGEKKLLVKVDAKTKAQLDEWKAKKKANGNARPETVTNDDEEALDEETKRRDQMIKGAIEVLIREYSSELNAPSQESDSHPRKKKKEKKEDIFRRFPVAPLIPYPLITKEDINAIEMEEDKRDLISREISKFRDTHKKLEEEKGKKEKERQEIEKERRERERERERERERREREREREREREREKEKERERERERDRDRDRTKERDRDRERDRDRDRERSSDRNKDRSRSREKSRDREREREREREREREREREREREREREREREREREKDKKRDREEDEEDAYERRKLERKLREKEAAYQERLKNWEIRERKKTREYEKEAEREEERRREMAKEAKRLKEFLEDYDDDRDDPKYYRGSALQKRLRDREKEMEADERDRKREKEELEEIRQRLLAEGHPDPDAELQRMEQEAERRRQPQIKQEPESEEEEEEKQEKEEKREEPVEEEEEPEQKPCLKPTLRPISSAPSVSSASGNATPNTPGDESPCGIIIPHENSPDQQQPEEHRPKIGLSLKLGASNSPGQPNSVKRKKLPVDSVFNKFEDEDSDDVPRKRKLVPLDYGEDDKNATKGTVNTEEKRKHIKSLIEKIPTAKPELFAYPLDWSIVDSILMERRIRPWINKKIIEYIGEEEATLVDFVCSKVMAHSSPQSILDDVAMVLDEEAEVFIVKMWRLLIYETEAKKIGLVK
Take B2: the “AvgP (average of the SAINT scores)” value came out at 1; the “MaxP (maximal SAINT score)” value was determined as 1; the “FoldChange between the prey Avg spectra” value turned out to be 180; the “AvgSpec (average number of spectra per replicate)” value is 18. The molecule further gave a SpecSum of 36. Further, under setting [1], the “Spectra (number of spectra for the prey in the purification of the bait)” value is reported as 16. For the same molecule, the “Spectra (number of spectra for the prey in the purification of the bait)” value under setting [2] is reported as 20.

B3: Srrm1 (protein, UniProt Q52KI8 1-946, looked up)
Serine/arginine repetitive …: MDAGFFRGTSAEQDNRFSNKQKKLLKQLKFAECLEKKVDMSKVNLEVIKPWITKRVTEILGFEDDVVIEFIFNQLEVKNPDSKMMQINLTGFLNGKNAREFMGELWPLLLSAQENIAGIPSAFLELKKEEIKQRQIEQEKLASLKKQDEDKDKRDKEEKESSREKRERSRSPRRRKSRSPSPRRRSSPVRRERKRSHSRSPRHRTKSRSPSPAPEKKEKSPELPEPSVRMKDSSVQEATSTSDILKAPKPEPVPEPKEPSPEKNSKKEKEKTRPRSRSRSKSRSRTRSRSPSHTRPRRRHRSRSRSYSPRRRPSPRRRPSPRRRTPPRRMPPPPRHRRSRSPGRRRRRSSASLSGSSSSSSSSRSRSPPKKPPKRTSSPPRKTRRLSPSASPPRRRHRPSSPATPPPKTRHSPTPQQSNRTRKSRVSVSPGRTSGKVTKHKGTEKRESPSPAPKPRKVELSESEEDKGSKMAAADSVQQRRQYRRQNQQSSSDSGSSSTSEDERPKRSHVKNGEVGRRRRHSPSRSASPSPRKRQKETSPRMQMGKRWQSPVTKSSRRRRSPSPPPARRRRSPSPAPPPPPPPPPPRRRRSPTPPPRRRTPSPPPRRRSPSPRRYSPPIQRRYSPSPPPKRRTASPPPPPKRRASPSPPPKRRVSHSPPPKQRSPTVTKRRSPSLSSKHRKGSSPGRSTREARSPQPNKRHSPSPRPRAPQTSSPPPVRRGASASPQGRQSPSPSTRPIRRVSRTPEPKKIKKTAMATQRNIRRVSKSPKADSLSRAASPSPQSVRRVSSSRSVSGSPEPAAKKPPAPPSPVQSQSPSTNWSPAVPAKKAKSPTPSLSPARNSDQEGGGKKKKKKKDKKHKKDKKHKKHKKHKKEKAVTIATPATAAPAAVSAATTTSAQEEPAAAPEPRKETESEAEDDNLDDLERHLREKALRSMRKAQVSPQS
Regarding B3, the “AvgP (average of the SAINT scores)” value came out at 1; the “MaxP (maximal SAINT score)” value is on record as 1; the “FoldChange between the prey Avg spectra” value is listed as 6.78; the “AvgSpec (average number of spectra per replicate)” value is 30.5. Further, the SpecSum is reported as 61. Further, the “Spectra (number of spectra for the prey in the purification of the bait)” value under setting [1] was determined as 25. The “Spectra (number of spectra for the prey in the purification of the bait)” value under setting [2] was 36.

B4: Sf3a1 (protein, UniProt Q8K4Z5 1-791, looked up)
Splicing factor 3A subunit 1: MQAGPVQAVPPPPPVATESKQPIEEEASSKEDPTPSKPVVGIIYPPPEVRNIVDKTASFVARNGPEFEARIRQNEINNPKFNFLNPNDPYHAYYRHKVSEFKEGKAQEPSAAIPKVMQQQQQATQQQLPQKVQAQVIQETIVPKEPPPEFEFIADPPSISAFDLDVVKLTAQFVARNGRQFLTQLMQKEQRNYQFDFLRPQHSLFNYFTKLVEQYTKILIPPKGLFSKLKKEAENPREVLDQVCYRVEWAKFQERERKKEEEEKEKERVAYAQIDWHDFVVVETVDFQPNEQGNFPPPTTPEELGARILIQERYEKFGESEEVEMEVESDEEDQEKAEETPSQLDQDTQVQDMDEGSDDEEEGQKVPPPPETPMPPPLPPTPDQVIVRKDYDPKASKPLPPAPAPDEYLVSPITGEKIPASKMQEHMRIGLLDPRWLEQRDRSIREKQSDDEVYAPGLDIESSLKQLAERRTDIFGVEETAIGKKIGEEEIQKPEEKVTWDGHSGSMARTQQAAQANITLQEQIEAIHKAKGLVPEDDTKEKIGPSKPNEIPQQPPPPSSATNIPSSAPPITSVPRPPAMPPPVRTTVVSAVPVMPRPPMASVVRLPPGSVIAPMPPIIHAPRINVVPMPPAAPPIMAPRPPPMIVPTAFVPAPPVAPVPAPAPMPPVHPPPPMEDEPPSKKLKTEDSLMPEEEFLRRNKGPVSIKVQVPNMQDKTEWKLNGQGLVFTLPLTDQVSVIKVKIHEATGMPAGKQKLQYEGIFIKDSNSLAYYNMASGAVIHLALKERGGRKK
With B4, the “AvgP (average of the SAINT scores)” value turned out to be 1; the “MaxP (maximal SAINT score)” value is recorded as 1; the “FoldChange between the prey Avg spectra” value stood at 8.33; the “AvgSpec (average number of spectra per replicate)” value was found to be 25. The same molecule gave a SpecSum of 50. Besides, the “Spectra (number of spectra for the prey in the purification of the bait)” value under setting [1] stood at 20. For the same molecule, the “Spectra (number of spectra for the prey in the purification of the bait)” value under setting [2] was 30.

B5: Sf1 (protein, UniProt Q64213 2-653, looked up)
Splicing factor 1: ATGANATPLDFPSKKRKRSRWNQDTMEQKTVIPGMPTVIPPGLTREQERAYIVQLQIEDLTRKLRTGDLGIPPNPEDRSPSPEPIYNSEGKRLNTREFRTRKKLEEERHTLITEMVALNPDFKPPADYKPPATRVSDKVMIPQDEYPEINFVGLLIGPRGNTLKNIEKECNAKIMIRGKGSVKEGKVGRKDGQMLPGEDEPLHALVTANTMENVKKAVEQIRNILKQGIETPEDQNDLRKMQLRELARLNGTLREDDNRILRPWQSSETRSITNTTVCTKCGGAGHIASDCKFQRPGDPQSAQDKARMDKEYLSLMAELGEAPVPASVGSTSGPATTPLASAPRPAAPASNPPPPSLMSTTQSRPPWMNSGPSENRPYHGMHGGGPGGPGGGPHSFPHPLPSLTGGHGGHPMQHNPNGPPPPWMQPPPPPMNQGPHPPGHHGPPPMDQYLGSTPVGSGVYRLHQGKGMMPPPPMGMMPPPPPPPSGQPPPPPSGPLPPWQQQQQQPPPPPPPSSSMASSTPLPWQQNTTTTTTSAGTGSIPPWQQQQAAAAASPGTPQMQGNPTMVPLPPGVQPPLPPGAPPPPPCSIECLLCLLSSPNSLCLSPNRAARIPPRGSDGPSHESEDFPRPLVTLPGRQPQQRPWWTGWFGKAA
With B5, the “AvgP (average of the SAINT scores)” value is on record as 1; the “MaxP (maximal SAINT score)” value came out at 1; the “FoldChange between the prey Avg spectra” value was 11.92; the “AvgSpec (average number of spectra per replicate)” value is reported as 71.5. The SpecSum is 143. Under setting [1], the “Spectra (number of spectra for the prey in the purification of the bait)” value is listed as 70. Under setting [2], the “Spectra (number of spectra for the prey in the purification of the bait)” value is listed as 73.
